B1: Advillin, residues 785 to 819; numbered along this chain, O75366 (parent)
chain: LSEQDFVSVFGITRGQFAALPGWKQLQMKKEKGLF

Variants of: B1
Experiment: abundance fitness (aPCA) (normalised: wild type 0, dead -1); higher = more abundant; growth selection in yeast, the domain comes from the species named
Settings: Homo sapiens

Abundance fitness of substitutions, site by site:
L26: V 0.073 | F -0.185 | D -0.01 | Y -0.174 | P -0.914 | M -0.114 | R -0.033 | Q 0.12 | T -0.075 | S 0.069 | I -0.181 | C -0.606 | K 0.068 | H -0.132 | G -0.146 | A 0.034
G33: N -0.401 | W -0.541 | Q 0.186 | R -0.235 | A -0.195 | V -0.525 | P 0.191 | K -0.325 | T -0.308 | L -0.305 | S -0.108 | E -0.032
K29: M -0.187 | I -0.218 | Q 0.026 | R -0.023 | P -0.497 | D -0.356 | Y -0.221 | C -0.024 | H -0.099 | L -0.289 | V 0 | T -0.043 | F -0.005 | N -0.09 | S -0.017 | A -0.183 | G -0.266 | W -0.075
K32: R 0.06 | P -0.132 | T -0.179 | Y -0.298 | G -0.156 | F -0.48 | S 0.015 | W -0.365 | V -0.103 | A 0.017 | N 0.122 | Q -0.122 | D -0.624 | I -0.536 | M 0.072 | L -0.047 | E -0.175
E31: W -0.709 | T -0.645 | I -0.421 | C -0.443 | L -0.42 | R -0.464 | A -0.173 | V -0.367 | M -0.453 | Y -0.746 | G -0.283 | H -0.563 | D 0.02 | P -0.645 | K -0.271
K24: Y -0.805 | M -0.098 | I -0.148 | H -0.61 | T -0.446 | Q -0.072 | N -0.433 | P -0.475 | V -0.279 | R -0.159 | S -0.304
Q25: G -0.568 | T -0.405 | R -0.187 | C -0.846 | W -1.4 | L -0.456 | S -0.735 | N -0.407 | E -0.593 | M -0.507 | A -0.525 | V -0.604 | K -0.31
F35: A -0.334 | R 0.126 | C 0.179 | V 0.141 | I 0.312 | P 0.054 | W -0.13 | E 0.129 | N -0.478 | K -1 | L 0.197 | Q -0.071 | S 0.355
Q27: H 0.108 | V -0.139 | K -0.064 | R -0.186 | W -0.37 | M -0.293 | A -0.125 | D -0.3 | E 0.098 | S -0.183 | F -0.416 | T -0.459 | C -0.432 | G -0.333 | P -0.589 | L -0.297
M28: R -1.14 | C -0.75 | A -0.905 | H -0.549 | G -1.13 | K -0.708 | P -1.19 | T -1.03 | L -0.47 | V -1.03 | I -0.619 | S -1.14
L34: D 0.284 | W 0.019 | K -0.003 | S 0.177 | H 0.042 | A 0.128 | G 0.147 | F 0.321 | M 0.029 | C 0.355 | Q 0.098 | R -0.112 | N 0.027 | P 0.033 | E 0.266 | V -0.122 | T 0.143
K30: L -0.192 | H -0.121 | N 0.04 | R 0.033 | T -0.215 | Q 0.026 | S -0.114 | C -0.321 | A 0.078 | M 0.051 | F -0.345 | E 0.147 | P -0.453 | V -0.076 | I -0.266 | G -0.159
